Where two headings read alike, the source gives them in different places.
What was measured:
[1] = biological target: wild type human TSHR (human) (UniProt P16473); assay: cell-based or functional assay
[2] = biological target: TSHR with Asp151 mutated to Alanine (human) (UniProt P16473); assay: cell-based or functional assay
[3] = biological target: wild type human TSHR (human) (UniProt P16473); assay: cell-based or functional assay; remark: listed apart in the source
[4] = biological target: TSHR with Arg255 mutated to Alanine (human) (UniProt P16473); assay: cell-based or functional assay
[5] = biological target: wild type human TSHR (human) (UniProt P16473); assay: cell-based or functional assay; remark: listed apart in the source
[6] = biological target: TSHR with Tyr82 mutated to Alanine (human) (UniProt P16473); assay: cell-based or functional assay
[7] = biological target: human TSHR (wild type) expressed in CHO cells (human) (UniProt P16473); assay: cell-based or functional assay
[8] = biological target: TSHR with Lys58 mutated to Alanine (human) (UniProt P16473); assay: cell-based or functional assay
[9] = biological target: human TSHR expressed on CHO cells (human) (UniProt P16473); assay: cell-based or functional assay
[10] = biological target: TSHR coated onto tubes (human) (UniProt P16473); assay: TSHR coated tubes, competitor 125I-5C9 IgG
[11] = biological target: wild type human TSHR (human) (UniProt P16473); assay: cell-based or functional assay; remark: listed apart in the source
[12] = biological target: TSHR with Phe134 mutated to Alanine (human) (UniProt P16473); assay: cell-based or functional assay

5C9 IgG (antibody), sequence (VH): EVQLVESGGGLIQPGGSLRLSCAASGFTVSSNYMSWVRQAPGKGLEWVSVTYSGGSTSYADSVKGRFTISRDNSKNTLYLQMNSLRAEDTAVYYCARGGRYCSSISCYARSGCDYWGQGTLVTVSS
5C9 IgG (antibody), sequence (VL): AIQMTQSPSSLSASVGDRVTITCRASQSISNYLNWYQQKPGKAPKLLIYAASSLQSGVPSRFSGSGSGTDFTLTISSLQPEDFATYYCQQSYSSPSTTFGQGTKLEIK

## 5C9 IgG (antibody)
[1]
  cyclic AMP; 5C9 0.01 µg/mL + TSH (fmol/cell well): 11200
  cyclic AMP; 5C9 0.1 µg/mL + TSH (fmol/cell well): 6950
  cyclic AMP; 5C9 1.0 µg/mL + TSH (fmol/cell well): 1390
  cyclic AMP; 5C9 10 µg/mL + TSH (fmol/cell well): 380
  cyclic AMP; 5C9 100 µg/mL + TSH (fmol/cell well): 945
  cyclic AMP; 5C9 100 µg/mL only (fmol/cell well): 176
[2]
  Mutated/wild type (%); 5C9 0.01 µg/mL + TSH: 112%
  Mutated/wild type (%); 5C9 0.1 µg/mL + TSH: 143%
  Mutated/wild type (%); 5C9 1.0 µg/mL + TSH: 465%
  Mutated/wild type (%); 5C9 10 µg/mL + TSH: 599%
  Mutated/wild type (%); 5C9 100 µg/mL + TSH: 162%
  Mutated/wild type (%); 5C9 100 µg/mL only: 224%
  cyclic AMP; 5C9 0.01 µg/mL + TSH (fmol/cell well): 12600
  cyclic AMP; 5C9 0.1 µg/mL + TSH (fmol/cell well): 9960
  cyclic AMP; 5C9 1.0 µg/mL + TSH (fmol/cell well): 6450
  cyclic AMP; 5C9 10 µg/mL + TSH (fmol/cell well): 2280
  cyclic AMP; 5C9 100 µg/mL + TSH (fmol/cell well): 1540
  cyclic AMP; 5C9 100 µg/mL only (fmol/cell well): 395
[3]
  cyclic AMP; 5C9 0.01 µg/mL + TSH (fmol/cell well): 6620
  cyclic AMP; 5C9 0.1 µg/mL + TSH (fmol/cell well): 3790
  cyclic AMP; 5C9 1.0 µg/mL + TSH (fmol/cell well): 966
  cyclic AMP; 5C9 10 µg/mL + TSH (fmol/cell well): 867
  cyclic AMP; 5C9 100 µg/mL + TSH (fmol/cell well): 1010
  cyclic AMP; 5C9 100 µg/mL only (fmol/cell well): 32
[4]
  Mutated/wild type (%); 5C9 0.01 µg/mL + TSH: 123%
  Mutated/wild type (%); 5C9 0.1 µg/mL + TSH: 109%
  Mutated/wild type (%); 5C9 1.0 µg/mL + TSH: 201%
  Mutated/wild type (%); 5C9 10 µg/mL + TSH: 80%
  Mutated/wild type (%); 5C9 100 µg/mL + TSH: 80%
  Mutated/wild type (%); 5C9 100 µg/mL only: 775%
  cyclic AMP; 5C9 0.01 µg/mL + TSH (fmol/cell well): 8120
  cyclic AMP; 5C9 0.1 µg/mL + TSH (fmol/cell well): 4140
  cyclic AMP; 5C9 1.0 µg/mL + TSH (fmol/cell well): 1940
  cyclic AMP; 5C9 10 µg/mL + TSH (fmol/cell well): 692
  cyclic AMP; 5C9 100 µg/mL + TSH (fmol/cell well): 809
  cyclic AMP; 5C9 100 µg/mL only (fmol/cell well): 248
[5]
  cyclic AMP; 5C9 0.01 µg/mL + TSH (fmol/cell well): 13900
  cyclic AMP; 5C9 0.1 µg/mL + TSH (fmol/cell well): 6250
  cyclic AMP; 5C9 1.0 µg/mL + TSH (fmol/cell well): 1600
  cyclic AMP; 5C9 10 µg/mL + TSH (fmol/cell well): 822
  cyclic AMP; 5C9 100 µg/mL + TSH (fmol/cell well): 978
  cyclic AMP; 5C9 100 µg/mL only (fmol/cell well): 289
[6]
  Mutated/wild type (%); 5C9 0.01 µg/mL + TSH: 113%
  Mutated/wild type (%); 5C9 0.1 µg/mL + TSH: 203%
  Mutated/wild type (%); 5C9 1.0 µg/mL + TSH: 185%
  Mutated/wild type (%); 5C9 10 µg/mL + TSH: 200%
  Mutated/wild type (%); 5C9 100 µg/mL + TSH: 105%
  Mutated/wild type (%); 5C9 100 µg/mL only: 494%
  cyclic AMP; 5C9 0.01 µg/mL + TSH (fmol/cell well): 15700
  cyclic AMP; 5C9 0.1 µg/mL + TSH (fmol/cell well): 12700
  cyclic AMP; 5C9 1.0 µg/mL + TSH (fmol/cell well): 2960
  cyclic AMP; 5C9 10 µg/mL + TSH (fmol/cell well): 1650
  cyclic AMP; 5C9 100 µg/mL + TSH (fmol/cell well): 1030
  cyclic AMP; 5C9 100 µg/mL only (fmol/cell well): 1430
[7]
  % inhibition of TSH stimulated cyclic AMP level; pTSH 3 ng/mL + 1 µg/mL 5C9: 92%
  Cyclic AMP produced; 5C9 0.01 µg/mL + pTSH 3 ng/mL; Experiment 1 (fmol/cell well): 17200
  Cyclic AMP produced; 5C9 0.01 µg/mL + pTSH 3 ng/mL; Experiment 2 (fmol/cell well): 14100
  Cyclic AMP produced; 5C9 0.1 µg/mL + pTSH 3 ng/mL; Experiment 1 (fmol/cell well): 5590
  Cyclic AMP produced; 5C9 0.1 µg/mL + pTSH 3 ng/mL; Experiment 2 (fmol/cell well): 4460
  Cyclic AMP produced; 5C9 1.0 µg/mL + pTSH 3 ng/mL; Experiment 1 (mean of duplicate determinations) (fmol/cell well): 759
  Cyclic AMP produced; 5C9 1.0 µg/mL + pTSH 3 ng/mL; Experiment 2 (fmol/cell well): 657
  Cyclic AMP produced; 5C9 10 µg/mL + pTSH 3 ng/mL; Experiment 1 (fmol/cell well): 366
  Cyclic AMP produced; 5C9 10 µg/mL + pTSH 3 ng/mL; Experiment 2 (fmol/cell well): 541
  Cyclic AMP produced; 5C9 100 µg/mL + pTSH 3 ng/mL; Experiment 1 (fmol/cell well): 344
  Cyclic AMP produced; 5C9 100 µg/mL + pTSH 3 ng/mL; Experiment 2 (fmol/cell well): 286
  Cyclic AMP produced; 5C9 100 µg/mL only (no TSH); Experiment 1 (fmol/cell well): 300
  Cyclic AMP produced; 5C9 100 µg/mL only (no TSH); Experiment 2 (fmol/cell well): 208
  cyclic AMP concentration; pTSH 3 ng/mL + 1 µg/mL 5C9 (fmol/cell well): 1110
[8]
  Mutated/wild type (%); 5C9 0.01 µg/mL + TSH: 108%
  Mutated/wild type (%); 5C9 0.1 µg/mL + TSH: 104%
  Mutated/wild type (%); 5C9 1.0 µg/mL + TSH: 195%
  Mutated/wild type (%); 5C9 10 µg/mL + TSH: 272%
  Mutated/wild type (%); 5C9 100 µg/mL + TSH: 190%
  cyclic AMP; 5C9 0.01 µg/mL + TSH (fmol/cell well): 7910
  cyclic AMP; 5C9 0.1 µg/mL + TSH (fmol/cell well): 4820
  cyclic AMP; 5C9 1.0 µg/mL + TSH (fmol/cell well): 1790
  cyclic AMP; 5C9 10 µg/mL + TSH (fmol/cell well): 955
  cyclic AMP; 5C9 100 µg/mL + TSH (fmol/cell well): 1000
  cyclic AMP; 5C9 100 µg/mL only (fmol/cell well): < 25
[9]
  Cyclic AMP, serum T1 + 0.001 µg/mL 5C9 IgG (fmol/cell well): 16900
  Cyclic AMP, serum T1 + 0.01 µg/mL 5C9 IgG (fmol/cell well): 20300
  Cyclic AMP, serum T1 + 0.1 µg/mL 5C9 IgG (fmol/cell well): 16200
  Cyclic AMP, serum T1 + 1 µg/mL 5C9 IgG (fmol/cell well): 2430
  Cyclic AMP, serum T1 + 10 µg/mL 5C9 IgG (fmol/cell well): 1120
  Cyclic AMP, serum T3 + 0.001 µg/mL 5C9 IgG (fmol/cell well): 11600
  Cyclic AMP, serum T3 + 0.01 µg/mL 5C9 IgG (fmol/cell well): 13700
  Cyclic AMP, serum T3 + 0.1 µg/mL 5C9 IgG (fmol/cell well): 10400
  Cyclic AMP, serum T3 + 1 µg/mL 5C9 IgG (fmol/cell well): 8080
  Cyclic AMP, serum T3 + 10 µg/mL 5C9 IgG (fmol/cell well): 7810
  Cyclic AMP, serum T6 + 0.001 µg/mL 5C9 IgG (fmol/cell well): 11800
  Cyclic AMP, serum T6 + 0.01 µg/mL 5C9 IgG (fmol/cell well): 13900
  Cyclic AMP, serum T6 + 0.1 µg/mL 5C9 IgG (fmol/cell well): 9530
  Cyclic AMP, serum T6 + 1 µg/mL 5C9 IgG (fmol/cell well): 2370
  Cyclic AMP, serum T6 + 10 µg/mL 5C9 IgG (fmol/cell well): 1030
  Cyclic AMP, serum T19 + 0.001 µg/mL 5C9 IgG (mean of duplicate) (fmol/cell well): 6470
  Cyclic AMP, serum T19 + 0.01 µg/mL 5C9 IgG (fmol/cell well): 5750
  Cyclic AMP, serum T19 + 0.1 µg/mL 5C9 IgG (fmol/cell well): 375
  Cyclic AMP, serum T19 + 1 µg/mL 5C9 IgG (fmol/cell well): 187
  Cyclic AMP, serum T19 + 10 µg/mL 5C9 IgG (fmol/cell well): 275
  Cyclic AMP, serum T20 + 0.001 µg/mL 5C9 IgG (mean of duplicate) (fmol/cell well): 4860
  Cyclic AMP, serum T20 + 0.01 µg/mL 5C9 IgG (fmol/cell well): 6490
  Cyclic AMP, serum T20 + 0.1 µg/mL 5C9 IgG (fmol/cell well): 2180
[10]
  % inhib of 125I-5C9 IgG binding at 0.01 µg/mL: 0%
  % inhib of 125I-5C9 IgG binding at 0.1 µg/mL: 10%
  % inhib of 125I-5C9 IgG binding at 1 µg/mL: 27%
  % inhib of 125I-5C9 IgG binding at 10 µg/mL: 42%
  % inhib of 125I-5C9 IgG binding at 100 µg/mL: 65.5%
[11]
  cyclic AMP; 5C9 0.01 µg/mL + TSH (fmol/cell well): 13600
  cyclic AMP; 5C9 0.1 µg/mL + TSH (fmol/cell well): 8700
  cyclic AMP; 5C9 1.0 µg/mL + TSH (fmol/cell well): 4540
  cyclic AMP; 5C9 10 µg/mL + TSH (fmol/cell well): 2390
  cyclic AMP; 5C9 100 µg/mL + TSH (fmol/cell well): 1390
  cyclic AMP; 5C9 100 µg/mL only (fmol/cell well): 212
[12]
  Mutated/wild type (%); 5C9 0.01 µg/mL + TSH: 117%
  Mutated/wild type (%); 5C9 0.1 µg/mL + TSH: 73%
  Mutated/wild type (%); 5C9 1.0 µg/mL + TSH: 43%
  Mutated/wild type (%); 5C9 10 µg/mL + TSH: 44%
  Mutated/wild type (%); 5C9 100 µg/mL + TSH: 77%
  Mutated/wild type (%); 5C9 100 µg/mL only: 159%
  cyclic AMP; 5C9 0.01 µg/mL + TSH (fmol/cell well): 15900
  cyclic AMP; 5C9 0.1 µg/mL + TSH (fmol/cell well): 6370
  cyclic AMP; 5C9 1.0 µg/mL + TSH (fmol/cell well): 1940
  cyclic AMP; 5C9 10 µg/mL + TSH (fmol/cell well): 1060
  cyclic AMP; 5C9 100 µg/mL + TSH (fmol/cell well): 1070
  cyclic AMP; 5C9 100 µg/mL only (fmol/cell well): 337

— US8840891 (RSR, dated 2014)
